Reference: patent publication US20220372125A1 (ASLAN PHARMACEUTICALS PTE, published 2022)

Experiments:
[1] = target: RON (Macrophage stimulating protein receptor), full length, on cells (human, UniProt Q04912 25-1400); assay: cell-based or functional assay
[2] = target: T1, Mammalian expressed extracellular human RON protein (Gly25 to Thr957) with His-tag (human, UniProt Q04912 25-957); assay: KinExA, RON-HIS
T1 construct: Expressed in ExpiCHO cells, purified on nickel; Position of the His-tag is told inconsistently; Written as one chain; also called RON ECD; RON ECD antigen; not shown: His-tag
T1 sequence: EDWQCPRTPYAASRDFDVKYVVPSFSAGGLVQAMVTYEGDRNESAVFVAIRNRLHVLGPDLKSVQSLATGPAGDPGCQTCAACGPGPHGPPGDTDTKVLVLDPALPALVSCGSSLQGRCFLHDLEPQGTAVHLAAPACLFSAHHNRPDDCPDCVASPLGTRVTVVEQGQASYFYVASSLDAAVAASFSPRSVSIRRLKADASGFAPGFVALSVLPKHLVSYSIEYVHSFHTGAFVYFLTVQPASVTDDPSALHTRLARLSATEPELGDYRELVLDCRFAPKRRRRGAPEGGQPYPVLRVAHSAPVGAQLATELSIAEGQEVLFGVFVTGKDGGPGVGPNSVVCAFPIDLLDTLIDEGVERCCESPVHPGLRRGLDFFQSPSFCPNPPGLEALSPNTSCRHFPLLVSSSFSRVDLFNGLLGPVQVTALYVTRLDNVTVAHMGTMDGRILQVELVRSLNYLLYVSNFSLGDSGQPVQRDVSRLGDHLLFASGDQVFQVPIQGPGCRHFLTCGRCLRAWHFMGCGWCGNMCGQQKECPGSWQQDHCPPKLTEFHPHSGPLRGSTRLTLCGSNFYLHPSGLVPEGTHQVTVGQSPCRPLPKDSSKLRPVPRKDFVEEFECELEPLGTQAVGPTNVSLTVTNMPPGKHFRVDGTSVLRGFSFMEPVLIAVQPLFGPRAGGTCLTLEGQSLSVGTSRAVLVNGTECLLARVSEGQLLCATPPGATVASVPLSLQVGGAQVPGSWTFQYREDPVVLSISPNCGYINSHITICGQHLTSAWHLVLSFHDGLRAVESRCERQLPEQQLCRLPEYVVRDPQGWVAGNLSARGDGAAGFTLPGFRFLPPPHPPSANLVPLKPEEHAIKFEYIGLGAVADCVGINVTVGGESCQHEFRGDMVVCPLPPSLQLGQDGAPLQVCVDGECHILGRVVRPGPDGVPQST

[3] = target: T1, Mammalian expressed extracellular human …; assay: KinExA, fixed antigen format, antibody titrated into fixed RON ECD-His
Text: This limitation of the SPR method for highly avid antibodies has been described previously and the use of kinetic exclusion assay has been proposed as a way to overcome this limitation allowing measurements in the sub nanomolar range. We employed the Kinetic Exclusion assay (KinEXa) method to measure the Kd values of all of the new antibodies using a fixed concentration of the recombinant mammalian expressed protein as the target antigen and a twelve-point dilution curve of each antibody. We dropped antibody 9F6, in this assay as it seemed less avid than the other antibodies in preliminary SPR binding assays. The remaining seven antibodies gave exactly accurate results in duplicate analysis (FIG. 6).
(§1) Mammalian produced recombinant extracellular His-tag RON protein was used for affinity measurements. Affinity determinations were carried out in the fixed antigen format. Antibodies were titrated as two-fold dilutions into a fixed concentration of RON antigen. RON protein was detected using mouse monoclonal to 6×His-Tag (Dylight@650, Thermo Fisher). All affinity measurements were carried out using the KinExa 4000 (Sapidyne Instruments).

[4] = target: T1, Mammalian expressed extracellular human …; assay: KinExA, RON-HIS; 95% Confidence Level 14.92 pM to 49.11 pM
Description: as §1

[5] = target: T1, Mammalian expressed extracellular human …; assay: KinExA, RON-HIS; 95% Confidence Level 2.52 x 106 to 6.93 x 106

- IC50 of inhibition of MSP induced ERK phosphorylation (AlphaLISA SureFire p-ERK, T47D cells) [1]: 2.8 nM
- koff [2]: 0.000121 s⁻¹
- Kd [3]: 0.029 nM
- Kd [4]: 0.0294 nM
- kon [5]: 4.12e+06 M⁻¹ s⁻¹
B1: 10G1 (antibody, V domains shown)
VH: EVKLEQSGGGLVQPGGSRKLSCAASGFTFSSFGMHWVRQAPEKGLEWVAYISGGSGTFYYADTVKGRFTISRDNPKNTLFLQMTSLRSEDTAIYYCARSTTVLDYWGQGTTLTVSS
VL: DIVLTQTPSSMYAFLGERVTIICKASQDINNYLNWVQQKPGKAPKTLIYHADRLADGVPSRFSGSGSGQDYSLTISSLEYEDMGIYYCLQYDDFPPFTFGSGTKLEIK
notes: Mouse monoclonal antibody from a hybridoma; kappa light chain; also called Antibody 10G1; anti-RON antibody 10G1
